For one test, the target named is human CGRP receptor (human, UniProt Q16602 23-461; O60894 27-148). Nature of the test: cell-based or functional assay.
A further test concerns the target T1, human PAC1 receptor (human, UniProt P41586 21-468).
T1 sequence: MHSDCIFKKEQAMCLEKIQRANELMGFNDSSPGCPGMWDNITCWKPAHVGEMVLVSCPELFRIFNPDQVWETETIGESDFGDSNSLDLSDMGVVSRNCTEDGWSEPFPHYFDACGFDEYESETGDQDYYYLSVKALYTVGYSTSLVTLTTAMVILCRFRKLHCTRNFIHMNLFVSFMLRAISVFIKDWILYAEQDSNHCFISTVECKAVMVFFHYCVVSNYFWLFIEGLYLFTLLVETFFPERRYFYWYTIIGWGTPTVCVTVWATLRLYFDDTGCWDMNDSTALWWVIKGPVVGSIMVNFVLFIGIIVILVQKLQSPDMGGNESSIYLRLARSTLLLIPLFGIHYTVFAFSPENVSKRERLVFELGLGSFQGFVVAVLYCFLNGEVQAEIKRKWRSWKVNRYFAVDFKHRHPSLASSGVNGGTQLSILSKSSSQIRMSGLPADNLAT
Nature of the test: cell-based or functional assay.

The text below walks through data of patent publication US20170306033A1 (Amgen, published 2017).

Changes are numbered by the printed parent chain.

human CGRP receptor, sequence (Q16602 23-461 limits assumed, chain 1 of 2): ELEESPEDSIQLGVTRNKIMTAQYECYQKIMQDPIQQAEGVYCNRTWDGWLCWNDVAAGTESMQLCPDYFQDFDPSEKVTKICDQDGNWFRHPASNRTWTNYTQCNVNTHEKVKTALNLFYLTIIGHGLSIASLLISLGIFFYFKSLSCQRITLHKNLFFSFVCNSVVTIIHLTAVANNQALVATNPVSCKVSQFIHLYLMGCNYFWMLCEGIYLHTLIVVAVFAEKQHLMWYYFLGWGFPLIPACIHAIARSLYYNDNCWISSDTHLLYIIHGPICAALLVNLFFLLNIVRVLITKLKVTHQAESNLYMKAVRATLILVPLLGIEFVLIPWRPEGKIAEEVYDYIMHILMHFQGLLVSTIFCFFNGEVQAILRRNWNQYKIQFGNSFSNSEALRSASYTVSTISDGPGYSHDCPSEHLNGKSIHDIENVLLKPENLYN
human CGRP receptor, sequence (O60894 27-148 limits assumed, chain 2 of 2): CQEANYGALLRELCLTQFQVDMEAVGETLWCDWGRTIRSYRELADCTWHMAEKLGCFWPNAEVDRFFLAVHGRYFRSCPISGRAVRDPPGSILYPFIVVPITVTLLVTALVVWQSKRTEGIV

B1: iPS:327877 (bispecific antibody, human IgG1, kappa, N297G)
light 1: not shown
heavy 1: not shown
light 2: EIVLTQSPGTLSLSPGERATLSCRASQSVSSGYLTWYQQKPGQAPRLLIYGASSRATGIPDRFSGSGSGTDFTLTISRLEPEDFAVYYCQQYGNSLSRFGQGTKLEIKRTVAAPSVFIFPPSDEQLKSGTASVVCLLNNFYPREAKVQWKVDNALQSGNSQESVTEQDSKDSTYSLKSTLTLSKADYEKHKVYACEVTHQGLSSPVTKSFNRGEC
heavy 2: not shown
Take B1: the “% inhibition of human CGRPR” value with human CGRP receptor came to 72%. In addition, the “% inhibition of human PAC1” value in the test with human PAC1 receptor amounted to 22%.

B2: iPS:327872 (bispecific antibody, human IgG1, kappa, N297G)
light 1: DIQMTQSPSSLSASVGDRITITCRASQSISRYLNWYQQKPGKAPKLLIYAASSLQSGIPSRFSGSGSGTDFTLTINSLQPEDFATYFCQQSYSPPFTFGQGTKVDIKRTVAAPSVFIFPPSDEQLKSGTASVVCLLNNFYPREAKVQWKVDNALQSGNSQESVTEQDSKDSTYSLESTLTLSKADYEKHKVYACEVTHQGLSSPVTKSFNRGEC
heavy 1: not shown
light 2: B1 light 2
heavy 2: not shown
For the molecule B2, in the test with human CGRP receptor, the “% inhibition of human CGRPR” value is 80%. The “% inhibition of human PAC1” value in the test with human PAC1 receptor is 40%.

B3: iPS:327874 (bispecific antibody, human IgG1, kappa, N297G)
light 1: not shown
heavy 1: not shown
light 2: B1 light 2
heavy 2: not shown
B3: the “% inhibition of human CGRPR” value with human CGRP receptor was 95%. Moreover, the “% inhibition of human PAC1” value in the test with human PAC1 receptor came to 5%.

B4: iPS:327871 (bispecific antibody, human IgG2, kappa, lambda)
light 1: DIQLTQSPSFLSASVGDRVTITCRASQSIGRSLHWYQQKPGKAPKLLIKYASQSLSGVPSRFSGSGSGTEFTLTISSLQPEDFATYYCHQSSRLPFTFGPGTKVDIKRTVAAPSVFIFPPSDEQLKSGTASVVCLLNNFYPREAKVQWKVDNALQSGNSQESVTEQDSKDSTYSLESTLTLSKADYEKHKVYACEVTHQGLSSPVTKSFNRGEC
heavy 1: QVQLVESGAEVVKPGASVKVSCKASGFTFSRFAMHWVRQAPGQGLEWMGVISYDGGNKYYAESVKGRVTMTRDTSTSTLYMELSSLRSEDTAVYYCARGYDVLTGYPDYWGQGTLVTVSSASTKGPSVFPLAPCSRSTSESTAALGCLVKDYFPEPVTVSWNSGALTSGVHTFPAVLQSSGLYSLKSVVTVPSSNFGTQTYTCNVDHKPSNTKVDKTVERKCCVECPPCPAPPVAGPSVFLFPPKPKDTLMISRTPEVTCVVVDVSHEDPEVQFNWYVDGVEVHNAKTKPREEQFNSTFRVVSVLTVVHQDWLNGKEYKCKVSNKGLPAPIEKTISKTKGQPREPQVYTLPPSREEMTKNQVSLTCLVDGFYPSDIAVEWESNGQPENNYDTTPPMLDSDGSFFLYSDLTVDKSRWQQGNVFSCSVMHEALHNHYTQKSLSLSPGK
light 2: QSVLTQPPSVSAAPGQKVTISCSGSSSNIGNNYVSWYQQLPGTAPKLLIYDNNKRPSGIPDRFSGSKSGTSTTLGITGLQTGDEADYYCGTWDSRLSAVVFGGGTKLTVLGQPKANPTVTLFPPSSEELQANKATLVCLISDFYPGAVTVAWKADGSPVKAGVETTKPSKQSNNKYAAKSYLSLTPEQWKSHRSYSCQVTHEGSTVEKTVAPTECS
heavy 2: QVQLVESGGGVVQPGRSLRLSCAASGFTFSSFGMHWVRQAPGKGLEWVAVISFDGSIKYSVDSVKGRFTISRDNSKNTLFLQMNSLRAEDTAVYYCARDRLNYYDSSGYYHYKYYGMAVWGQGTTVTVSSASTKGPSVFPLAPCSRSTSESTAALGCLVKDYFPEPVTVSWNSGALTSGVHTFPAVLQSSGLYSLESVVTVPSSNFGTQTYTCNVDHKPSNTKVDKTVERKCCVECPPCPAPPVAGPSVFLFPPKPKDTLMISRTPEVTCVVVDVSHEDPEVQFNWYVDGVEVHNAKTKPREEQFNSTFRVVSVLTVVHQDWLNGKEYKCKVSNKGLPAPIEKTISKTKGQPREPQVYTLPPSRKKMTKNQVSLTCLVKGFYPSDIAVEWESNGQPENNYKTTPPMLKSDGSFFLYSKLTVDKSRWQQGNVFSCSVMHEALHNHYTQKSLSLSPGK
In the case of B4, the “% inhibition of human CGRPR” value with human CGRP receptor stood at 65%. Moreover, the “% inhibition of human PAC1” value in the test with human PAC1 receptor was 68%.

B5: iPS:327882 (bispecific antibody, human IgG1, kappa, lambda, N297G)
light 1: not shown
heavy 1: not shown
light 2: B4 light 2
heavy 2: QVQLVESGGGVVQPGRSLRLSCAASGFTFSSFGMHWVRQAPGKGLEWVAVISFDGSIKYSVDSVKGRFTISRDNSKNTLFLQMNSLRAEDTAVYYCARDRLNYYESSGYYHYKYYGMAVWGQGTTVTVSSASTKGPSVFPLAPSSKSTSGGTAALGCLVKDYFPEPVTVSWNSGALTSGVHTFPAVLQSSGLYSLESVVTVPSSSLGTQTYICNVNHKPSNTKVDKKVEPKSCDKTHTCPPCPAPELLGGPSVFLFPPKPKDTLMISRTPEVTCVVVDVSHEDPEVKFNWYVDGVEVHNAKTKPCEEQYGSTYRCVSVLTVLHQDWLNGKEYKCKVSNKALPAPIEKTISKAKGQPREPQVYTLPPSRKKMTKNQVSLTCLVKGFYPSDIAVEWESNGQPENNYKTTPPVLKSDGSFFLYSKLTVDKSRWQQGNVFSCSVMHEALHNHYTQKSLSLSPGK
Take B5: in the test with human CGRP receptor, the “% inhibition of human CGRPR” value worked out at 83%. The “% inhibition of human PAC1” value with human PAC1 receptor was 13%.

B6: iPS:327742 (bispecific antibody, human IgG1, kappa, lambda, N297G)
light 1: EIVLTQSPATLSLSPGERATLSCRASQSVGRSLHWYQQKPGQAPRLLIKYASQSLSGIPARFSGSGSGTDFTLTISSLEPEDFAVYYCHQSSRLPFTFGPGTKVDIKRTVAAPSVFIFPPSDEQLKSGTASVVCLLNNFYPREAKVQWKVDNALQSGNSQESVTEQDSKDSTYSLESTLTLSKADYEKHKVYACEVTHQGLSSPVTKSFNRGEC
heavy 1: not shown
light 2: B4 light 2 with T72A
heavy 2: B5 heavy 2
B6: in the test with human CGRP receptor, the “% inhibition of human CGRPR” value came to 84%. The “% inhibition of human PAC1” value with human PAC1 receptor is 96%.

B7: iPS:327880 (bispecific antibody, human IgG1, kappa, lambda, N297G)
light 1: not shown
heavy 1: not shown
light 2: B4 light 2 with G103K
heavy 2: B5 heavy 2 with G44E, K370E
Regarding B7, the “% inhibition of human CGRPR” value with human CGRP receptor is 87%. Moreover, the “% inhibition of human PAC1” value with human PAC1 receptor came out at 15%.

B8: iPS:327891 (bispecific antibody, human IgG1, kappa, lambda, N297G)
light 1: B2 light 1
heavy 1: not shown
light 2: B4 light 2 with T72A, G75A
heavy 2: B5 heavy 2 with E105D
Turning to B8, the “% inhibition of human CGRPR” value with human CGRP receptor was 80%. Further, the “% inhibition of human PAC1” value with human PAC1 receptor stood at 78%.

B9: iPS:327881 (bispecific antibody, human IgG1, kappa, lambda, N297G)
light 1: B2 light 1
heavy 1: not shown
light 2: B4 light 2
heavy 2: B5 heavy 2
In the case of B9, the “% inhibition of human CGRPR” value with human CGRP receptor is 76%. The “% inhibition of human PAC1” value in the test with human PAC1 receptor amounted to 16%.

B10: iPS:327878 (bispecific antibody, human IgG1, kappa, lambda, N297G)
light 1: B2 light 1
heavy 1: not shown
light 2: B4 light 2
heavy 2: B5 heavy 2 with K370E
Regarding B10, in the test with human CGRP receptor, the “% inhibition of human CGRPR” value came to 75%. Further, the “% inhibition of human PAC1” value with human PAC1 receptor was found to be 42%.

B11: iPS:327879 (bispecific antibody, human IgG1, kappa, lambda, N297G)
light 1: not shown
heavy 1: not shown
light 2: B4 light 2
heavy 2: B5 heavy 2 with K370E
In the case of B11, the “% inhibition of human CGRPR” value with human CGRP receptor stood at 81%. In addition, the “% inhibition of human PAC1” value with human PAC1 receptor came out at 19%.
